# According to patent US20240010720A1 (IOMX THERAPEUTICS, published 2024):
# Changes are numbered by the printed parent chain.
# T1: recombinant human IGSF11 (VSIG3) extracellular domain (ECD) (human, UniProt Q5DX21 23-241, biotinylated where captured on streptavidin)
# T1 construct: also called biotinylated recombinant ECD-IGSF11; IGSF11 (ECD domain)
# T1 sequence: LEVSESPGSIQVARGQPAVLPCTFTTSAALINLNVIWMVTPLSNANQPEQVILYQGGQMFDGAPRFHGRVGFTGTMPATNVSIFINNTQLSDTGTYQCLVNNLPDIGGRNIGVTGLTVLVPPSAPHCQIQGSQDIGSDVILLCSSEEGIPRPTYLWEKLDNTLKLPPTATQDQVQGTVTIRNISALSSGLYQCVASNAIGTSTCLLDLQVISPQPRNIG
# T2: His-tagged extracellular domain (ECD) of human IGSF11 (VSIG3) (human, UniProt Q5DX21 23-241)
# T2 construct: partly bought (SinoBiological 13094-H08H); also called IGSF11-HIS; HIS-IGSF11; not shown: HIS6 tag
# T2 sequence: T1 sequence
# T3: murine IGSF11 on cells (mouse, UniProt P0C673 23-428)
# T3 construct: UniProt P0C673; also called MC38-IGSF11 (murine); CT26-IGSF11 (murine)
# T3 sequence: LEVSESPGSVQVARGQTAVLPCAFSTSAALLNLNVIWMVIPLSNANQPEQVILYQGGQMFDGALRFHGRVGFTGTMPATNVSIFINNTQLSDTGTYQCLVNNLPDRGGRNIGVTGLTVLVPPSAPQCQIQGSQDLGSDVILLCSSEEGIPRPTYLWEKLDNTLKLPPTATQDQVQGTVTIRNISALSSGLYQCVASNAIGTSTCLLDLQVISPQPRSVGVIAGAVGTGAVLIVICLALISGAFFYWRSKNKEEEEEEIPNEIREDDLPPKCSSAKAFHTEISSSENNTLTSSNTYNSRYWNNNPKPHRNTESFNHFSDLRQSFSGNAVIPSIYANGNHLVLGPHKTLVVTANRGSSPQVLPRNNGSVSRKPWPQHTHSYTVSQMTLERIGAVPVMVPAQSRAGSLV
# T4: IGSF11 ECD fused to murine-Fc (human; mouse, UniProt Q5DX21 23-241)
# T4 construct: also called Fc-fusion IGSF11 ECD; full-length ECD of IGSF11; not shown: murine Fc
# T4 sequence: T1 sequence
# T5: recombinant cynomolgus monkey IGSF11 extracellular domain (ECD) (cynomolgus monkey, UniProt Q5DX21 23-241 (human entry), biotinylated)
# T5 chain: T1 sequence with P17T, I83V, A185T, S187T
# T6: recombinant murine IGSF11 extracellular domain (ECD) (mouse, UniProt P0C673 23-240, biotinylated)
# T6 construct: also called Mouse IGSF11; murine ECD-IGSF11
# T6 sequence: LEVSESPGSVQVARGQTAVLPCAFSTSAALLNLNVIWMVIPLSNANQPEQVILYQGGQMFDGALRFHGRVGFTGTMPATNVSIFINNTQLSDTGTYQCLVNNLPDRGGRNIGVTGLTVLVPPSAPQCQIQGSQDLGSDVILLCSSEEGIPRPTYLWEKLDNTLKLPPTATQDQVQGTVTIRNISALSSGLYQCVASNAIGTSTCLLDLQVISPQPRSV
# T7: human IGSF11 (VSIG3) on cells (human, UniProt Q5DX21 23-431)
# T7 sequence: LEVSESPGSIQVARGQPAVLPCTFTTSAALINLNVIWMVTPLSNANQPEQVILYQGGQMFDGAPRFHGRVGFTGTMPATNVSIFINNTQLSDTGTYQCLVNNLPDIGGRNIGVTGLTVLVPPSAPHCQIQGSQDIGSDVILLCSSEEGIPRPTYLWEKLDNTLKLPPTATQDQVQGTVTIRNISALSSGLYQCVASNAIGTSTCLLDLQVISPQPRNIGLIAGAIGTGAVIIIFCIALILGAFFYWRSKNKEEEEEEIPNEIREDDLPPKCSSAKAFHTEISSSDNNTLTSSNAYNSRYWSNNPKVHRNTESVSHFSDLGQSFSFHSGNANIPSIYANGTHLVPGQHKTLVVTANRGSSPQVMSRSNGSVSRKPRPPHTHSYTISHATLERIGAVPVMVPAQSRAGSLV
# B1: C-007 (IgG1 format) (antibody, V domains shown)
# VH: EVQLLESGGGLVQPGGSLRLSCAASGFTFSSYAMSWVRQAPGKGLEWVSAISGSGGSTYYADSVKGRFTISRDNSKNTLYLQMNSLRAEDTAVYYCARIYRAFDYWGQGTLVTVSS
# VL: ASVLTQPPSVSAAPGQKVTISCSGSSSNIGNNYVSWYQQLPGTAPKLLIYDNNKRPSGIPDRFSGSKSGTSATLGITGLQAEDEADYYCQLYEEEHSTWVFGGGTKLTVL
# notes: wildtype human IgG1 and kappa or lambda constant regions
# B2: C-001 (IgG1 format) (antibody, V domains shown)
# VH: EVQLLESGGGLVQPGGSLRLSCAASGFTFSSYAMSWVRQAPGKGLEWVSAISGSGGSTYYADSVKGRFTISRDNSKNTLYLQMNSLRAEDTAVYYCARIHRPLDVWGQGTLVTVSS
# VL: B1 VL with Q90G, L91S, Y92W, E93L, H96R, T98Q, W99Y
# notes: wildtype human IgG1 and kappa or lambda constant regions; also called ABP C-001
# B3: C-005 (IgG1 format) (antibody, V domains shown)
# VH: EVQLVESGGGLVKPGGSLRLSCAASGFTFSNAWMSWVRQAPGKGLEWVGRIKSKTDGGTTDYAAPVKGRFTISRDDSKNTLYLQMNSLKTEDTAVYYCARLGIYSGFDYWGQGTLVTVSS
# VL: SYELTQPPSVSVSPGQTASITCSGDKLGDKYASWYQQKPGQSPVLVIYQDSKRPSGIPERFSGSNSGNTATLTISGTQAEDEADYYCHSYTGKPSQVVFGGGTKLTVL
# notes: as for B1
# B4: B-008 (chain-swapped IgG1) (antibody, V domains shown)
# VH: EVQLVESGGGLIQPGGSLRLSCAASGFTVSSNYMSWVRQAPGKGLEWVSVIYSGGSTYYADSVKGRFTISRDNSKNTLYLQMNSLRAEDTAVYYCARGNPYYYGDLQVNFDYWGQGTLVTVSS
# VL: QAVVTQEPSLTVSPGGTVTPTCGSSTGAVTSGNLPNWFQQKPGQAPRALIYSTSNKHSWTPARISGSLLGGKAALTLSGVQPEDEAEYYCLLYYGGAWVFGGGTKLTVL
# notes: human IgG1 format; also called B8
# B5: C-016 (IgG1 format) (antibody, V domains shown)
# VH: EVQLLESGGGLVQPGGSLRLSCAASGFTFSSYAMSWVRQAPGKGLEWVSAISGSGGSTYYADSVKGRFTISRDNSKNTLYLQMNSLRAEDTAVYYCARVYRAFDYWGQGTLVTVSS
# VL: B1 VL with Q90H, E93T, E95A, H96E, T98H
# notes: as for B1
# B6: C-017 (IgG1 format) (antibody, V domains shown)
# VH: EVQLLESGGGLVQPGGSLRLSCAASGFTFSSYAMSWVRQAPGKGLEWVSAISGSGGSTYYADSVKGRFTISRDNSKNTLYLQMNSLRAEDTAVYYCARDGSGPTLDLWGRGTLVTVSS
# VL: DIQMTQSPSSLSASVGDRVTITCRASQSISSYLNWYQQKPGKAPKLLIYAASSLQSGVPSRFSGSGSGTDFTLTISSLQPEDFATYYCQQHRYIPPWTFGQGTKVEIK
# notes: as for B1
# B7: C-004 (Fab format) (Fab, V domains shown)
# VH: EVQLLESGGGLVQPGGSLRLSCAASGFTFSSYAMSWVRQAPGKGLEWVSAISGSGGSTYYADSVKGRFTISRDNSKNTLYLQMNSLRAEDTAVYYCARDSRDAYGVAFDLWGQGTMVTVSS
# VL: B1 VL with Q90L, L91T, Y92W, E93T, E94G, E95A, H96G, S97R, T98I, W99F
# notes: Fab in E. coli lysate
# B8: C-019 (Fab format) (Fab, V domains shown)
# VH: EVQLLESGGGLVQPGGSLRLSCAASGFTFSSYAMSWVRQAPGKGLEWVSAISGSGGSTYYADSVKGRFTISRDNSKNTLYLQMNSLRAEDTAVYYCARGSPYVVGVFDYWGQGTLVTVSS
# VL: B6 VL with H91W, R92Q, Y93H, I94E, W97Y
# notes: Fab in E. coli lysate
# B9: C-013 (Fab format) (Fab, V domains shown)
# VH: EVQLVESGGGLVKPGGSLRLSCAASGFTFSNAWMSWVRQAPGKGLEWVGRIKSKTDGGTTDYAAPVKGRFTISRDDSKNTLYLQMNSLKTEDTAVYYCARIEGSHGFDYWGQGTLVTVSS
# VL: B3 VL with H88A, T91L, G92H, K93T, S95K, V97F
# notes: Fab in E. coli lysate
# B10: C-018 (Fab format) (Fab, V domains shown)
# VH: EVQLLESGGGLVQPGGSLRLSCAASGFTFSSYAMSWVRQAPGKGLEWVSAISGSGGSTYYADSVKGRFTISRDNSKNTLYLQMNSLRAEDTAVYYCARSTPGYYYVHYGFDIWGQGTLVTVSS
# VL: B3 VL with H88Q, S89A, Y90W, T91S, G92T, K93S, P94T, S95H, Q96S, V97W
# notes: Fab in E. coli lysate
# B11: C-027 (Fab format) (Fab, V domains shown)
# VH: QVQLVQSGAEVKKPGSSVKVSCKASGGTFSSYAISWVRQAPGQGLEWMGGIIPIFGTANYAQKFQGRVTITADESTSTAYMELSSLRSEDTAVYYCARENIPSYYDSSGRQDAFDIWGQGTMVTVSS
# VL: B3 VL with H88Q, T91L, G92H, P94S, S95H, Q96G, V97A
# notes: Fab in E. coli lysate
# B12: C-010 (Fab format) (Fab, V domains shown)
# VH: QVQLVQSGAEVKKPGSSVKVSCKASGGTFSSYAISWVRQAPGQGLEWMGGIIPIFGTANYAQKFQGRVTITADESTSTAYMELSSLRSEDTAVYYCARGYGEYYPAFDVWGQGTLVTVSS
# VL: B3 VL with H88A, T91A, G92H, K93T, P94H, Q96T, V97W
# notes: Fab in E. coli lysate
# Target: T1, recombinant human IGSF11 (VSIG3) …
# Assay: BLI, apparent affinity, IgG captured, IGSF11 ECD 100 nM
# From the text: Briefly, various APBs were loaded on an optical biosensor via a commercially available Capture System (AHC sensors, ForteBio).
row,Binder,Kd
1,B1,< 125 nM
2,B2,< 75 nM
3,B3,< 15 nM

# Target: T2, His-tagged extracellular domain (ECD) …
# Assay: blocking ELISA: antibody pre-incubated with His-tagged IGSF11 ECD, complexes added to immobilised VSIR-Fc; y axis % remaining IGSF11 binding to VSIR, x axis nM IgG per legend
row,Binder,IC50 (read off the curve)
1,B4,~4 nM

# Target: T3, murine IGSF11 on cells
# Assay: FACS, MC38-IGSF11 cells, IgG
# From the text: (§1) Unbound antibodies were removed by washing the cells three time with FACS buffer. Bound antibodies were detected with a mouse anti-human IgG antibody conjugated with AlexaFluor647.
row,Binder,EC50
1,B1,< 20 nM
2,B5,50 to 100 nM
3,B2,50 to 100 nM
4,B6,50 to 100 nM
5,B3,< 20 nM

# Target: T3, murine IGSF11 on cells
# Assay: FACS, CT26-IGSF11 cells, IgG
# From the text: as §1
row,Binder,EC50
1,B1,20 to 50 nM
2,B5,20 to 50 nM
3,B2,20 to 50 nM
4,B6,20 to 50 nM
5,B3,< 20 nM

# Target: T4, IGSF11 ECD fused to murine-Fc
# Assay: ELISA, IgG
# From the text: Expi293 cells (ThermoFisher) were transiently transfected with DNA sequences encoding the applicable IGSF11 domain-mFc fusions according to the manufacturer's instructions, and cultured under conditions suitable to the IGSF11 domain fusion. Cell supernatants were harvested 5 days post transfection and the expressed Fc-protein purified via Protein A affinity chromatography (GE Healthcare). IGSF11 domain Fc-fusion proteins were re-buffered into PBS pH7.4. […] The surface was blocked with 2% (w/v) skim milk powder in PBST. After three wash cycles with PBST, a dilution series of IgG-format ABPs was transferred to the immobilized the Fc-fusion IGSF11 ECD or the IGSF11 domains and incubated for 1 h. After removing all unbound antibodies by 3 wash cycles with PBST, bound IgG ABPs were detected with a goat anti-human IgG antibody conjugated with horseradish peroxidase. After three wash cycles with PBST the ELISA was developed with TMB substrate.
row,Binder,EC50
1,B1,< 1 nM
2,B2,< 1 nM
3,B6,1 to 20 nM
4,B3,< 1 nM

# Target: T1, recombinant human IGSF11 (VSIG3) …
# Assay: ELISA, Fab
# Method: (§2) In order to identify IGSF11-specific binding ABPs, monoclonal Fabs expressed from E. coli were generated from the enriched set of anti-IGFS11 antibody-expressing phage. After bacterial lysis, the Fabs were tested for their binding properties and cross-reactivity profile on recombinant ECD-IGSF11 (human, mouse and cynomolgus monkey) by standard ELISA. Briefly, biotinylated recombinant ECD-IGSF11 from human, mouse, or cynomolgus monkey were immobilized at 2 ug/mL on a streptavidin-coated 384-well Maxisorp plate. The surface was blocked with 2% (w/v) skim milk powder in PBST. After three wash cycles with PBST, a bacterial lysate of each of the anti-IGSF11 Fabs in 2% (w/v) skim milk powder was applied to the immobilized IGSF11 and incubated for 1 h. After removing all unbound Fab by 3 wash cycles with PBST, bound Fab antibodies were detected with a goat anti-human Fab antibody conjugated with horseradish peroxidase. After three wash cycles with PBST the ELISA was developed with TMB substrate.
row,Binder,A450
1,B7,< 1
2,B8,< 1
3,B9,< 1
4,B10,< 1
5,B11,< 1

# Target: T8, Streptavidin (UniProt P22629 37-163, limits assumed)
# T8 construct: also called negative antigen; irrelevant antigen
# T8 sequence (P22629 37-163 limits assumed): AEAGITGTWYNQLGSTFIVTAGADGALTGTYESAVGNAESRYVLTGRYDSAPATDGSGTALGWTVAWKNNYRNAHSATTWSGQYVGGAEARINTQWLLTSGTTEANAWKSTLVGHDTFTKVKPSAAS
# Assay: ELISA, Fab
# Method: as §2
row,Binder,A450
1,B7,< 0.1
2,B8,< 0.1
3,B9,< 0.1
4,B10,< 0.1
5,B12,< 0.1
6,B11,< 0.1

# Target: T5, recombinant cynomolgus monkey IGSF11 …
# Assay: ELISA, Fab
# Method: as §2
row,Binder,A450
1,B7,< 1
2,B8,< 1
3,B10,< 1
4,B12,< 1
5,B11,< 1

# Target: T6, recombinant murine IGSF11 extracellular …
# Assay: ELISA, Fab
# Method: as §2
row,Binder,A450
1,B7,< 1
2,B8,< 1
3,B10,< 1
4,B12,< 1

# Target: T7, human IGSF11 (VSIG3) on cells
# Assay: FACS, MDA-MB-231-IGSF11 cells, IgG
# From the text: as §1
row,Binder,EC50
1,B1,< 10 nM
2,B2,< 10 nM
3,B6,15 to 25 nM
4,B3,< 10 nM
